Data as given in article PMC5374059 (Journal of molecular biology, 2016).
Ends that are not written are not given here. Me3 = trimethyl-lysine; Me2 = dimethyl

Tests used:
[1] = molecular target: Set3 PHD finger (wild type, as used in fluorescence and NMR titrations) (yeast) (UniProt P36124); assay: NMR titration
[2] = molecular target: Set3 PHD finger (wild type, as used in fluorescence and NMR titrations) (yeast) (UniProt P36124); assay: other fluorescence titration
[3] = molecular target: T131M mutant of Set3 PHD (yeast) (UniProt P36124); assay: other fluorescence titration
[4] = molecular target: T1, Set3 PHD finger (aa 116-184), crystallised (yeast, UniProt P36124 116-184); assay: crystal structure
T1 sequence (looked up): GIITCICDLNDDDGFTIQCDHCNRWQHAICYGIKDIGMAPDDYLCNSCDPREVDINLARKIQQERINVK

M132T mutant of MLL5 PHD = molecular target: T2, M132T mutant of MLL5 PHD (human, UniProt Q8IZD2 117-181, M132T); assay: NMR titration
T2 sequence (looked up): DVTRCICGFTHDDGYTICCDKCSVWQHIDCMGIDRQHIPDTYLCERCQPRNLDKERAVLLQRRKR

Molecule | Kd [1] | Kd [2] | Kd [3] | binding result [4] | other results
histone H3K4me0 peptide (unmodified, residues 1-12 of histone H3) (from UniProt P61830 2-13) | 1400 µM |  |  |  | 
histone H3K4me2 peptide (residues 1-12 of histone H3) (from UniProt P61830 2-13) |  | 30 µM | 8 µM |  | 
histone H3K4me3 peptide (residues 1-12 of histone H3) (from UniProt P61830 2-13) |  | 20 µM | 2.5 µM |  | 
histone H3K4me1 peptide (residues 1-12 of histone H3) (from UniProt P61830 2-13) | 790 µM |  |  |  | 
ARTK(Me3)QTARKSTG (peptide, UniProt P61830 2-13, looked up) [histone H3K4me3 peptide (residues 1-12 of histone H3)] |  |  |  | binds | fold selectivity for H3K4me3 over H3K4me2 (M132T mutant of MLL5 PHD): 1.5 fold
ARTK(Me2)QTARKSTG (peptide, UniProt P61830 2-13, looked up) [histone H3K4me2 peptide (residues 1-12 of histone H3)] |  |  |  | binds | 
